Tested on: acetylated histone H3
Details: ChIP with qPCR

p16 5'-UTR CpG island region, methylated (untreated HCT15)
binding signal (reference (10-fold lower than treated)) (5mC in CpG island, untreated HCT15 cells): 1

p16 5'-UTR CpG island region, unmethylated (5-azacytidine-treated HCT15)
binding signal (fold enrichment vs untreated) (HCT15 cells treated with 2 uM 5-azacytidine): 10
